From patent US20210261685A1 (Alector, published 2021)

T1: cyno MerTK extracellular domain (ECD), recombinant (cynomolgus monkey, UniProt Q12866 21-505 (human entry))
T1 construct: also called cynomolgus MerTK; not shown: polyHis tag or TEVS/Thrombin/murine IgG2a Fc tag
T1 chain: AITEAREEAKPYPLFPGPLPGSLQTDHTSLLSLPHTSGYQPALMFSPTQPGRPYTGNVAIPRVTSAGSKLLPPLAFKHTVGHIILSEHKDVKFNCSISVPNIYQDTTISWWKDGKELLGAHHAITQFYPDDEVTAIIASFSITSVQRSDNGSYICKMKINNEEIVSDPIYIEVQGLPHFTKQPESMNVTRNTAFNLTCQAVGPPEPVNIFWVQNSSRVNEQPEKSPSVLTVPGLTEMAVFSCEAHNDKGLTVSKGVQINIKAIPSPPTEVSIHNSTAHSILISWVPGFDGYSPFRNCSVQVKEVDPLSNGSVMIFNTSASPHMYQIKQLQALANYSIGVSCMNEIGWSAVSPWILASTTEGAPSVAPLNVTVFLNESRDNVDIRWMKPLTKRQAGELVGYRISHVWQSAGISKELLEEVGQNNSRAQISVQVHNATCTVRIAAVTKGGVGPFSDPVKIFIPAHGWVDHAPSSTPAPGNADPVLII

T2: Recombinant human MerTK human Fc Chimera protein (R&D systems, Cat #391-MR-100) (human, UniProt Q12866 26-499, limits assumed)
T2 construct: Bought; also called recombinant human MerTK protein; MerTK-Fc
T2 sequence: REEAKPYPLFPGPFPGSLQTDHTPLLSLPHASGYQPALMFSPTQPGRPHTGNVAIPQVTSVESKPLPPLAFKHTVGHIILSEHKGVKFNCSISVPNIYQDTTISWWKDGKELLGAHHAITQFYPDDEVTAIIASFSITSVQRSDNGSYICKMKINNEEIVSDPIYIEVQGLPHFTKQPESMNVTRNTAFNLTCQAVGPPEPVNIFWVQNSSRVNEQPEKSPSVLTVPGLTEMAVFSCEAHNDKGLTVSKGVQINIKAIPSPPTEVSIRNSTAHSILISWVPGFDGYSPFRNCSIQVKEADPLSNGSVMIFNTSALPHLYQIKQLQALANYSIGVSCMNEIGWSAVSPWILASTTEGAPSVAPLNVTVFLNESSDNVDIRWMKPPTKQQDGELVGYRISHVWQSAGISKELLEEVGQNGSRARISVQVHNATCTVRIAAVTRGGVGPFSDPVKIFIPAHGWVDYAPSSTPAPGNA


Experiments:
[1] = biological target: T1, cyno MerTK extracellular domain (ECD), …; experiment: SPR, Carterra LSA, antibody immobilised
Description: Binding kinetics of human anti-MerTK IgG1 LALAPS antibodies of the present disclosure to human, cyno, and murine MerTK were evaluated using a Carterra LSA instrument (Carterra, Salt Lake City, Utah). Briefly, anti-MerTK antibodies were prepared by diluting to 10 μg/ml in 10 mM Acetate, pH 4.25 (Carterra), at 300 μl/well. A HC200M sensor chip (Carterra) was activated using the single channel flow cell with a 7-minute injection of a 1:1:1 mixture of 100 mM MES pH 5.5, 100 mM sulfo-NHS, 400 mM EDC (all reconstituted in MES pH 5.5; 100 μl of each mixed in vial immediately before running assay). After switching to the multi-channel array flow cell, the antibodies were injected over the activated chip in a 96-spot array for 15 minutes. The remaining unconjugated active groups on the chip were then blocked by injecting 1M Ethanolamine pH 8.5 (Carterra) for 7 minutes using the single channel flow cell.
After priming with running buffer (HBS-TE, Carterra) with 0.5 mg/ml BSA (Sigma), the immobilized anti-MerTK antibodies were tested for their ability to bind to several forms of recombinant MerTK extracellular domain, including human, cynomolgus, and mouse orthologs as described above. Estimates of affinity were generated by injecting each analyte over the entire antibody array using the single channel flow cell. MerTK analytes were diluted to 33.3, 100, and 300 nM in running buffer, and injected in serial from lowest to highest concentration without regeneration. Two buffer blanks were run between each series (one species per series). Data were processed and analyzed using NextGenKIT high-throughput kinetics analysis software (Carterra).
The equilibrium dissociation constants (KD) were then calculated from the fitted association and dissociation rate constants (k-on and k-off) for anti-MerTK antibodies of the present disclosure. Binding kinetic analysis was also performed on anti-MerTK antibodies H1 (BioLegend, Clone ID: 590H11G1E3), H2 (R&D systems, Clone ID: 125518), M6 (WO2016/106221), and CDX AB2000-A7 hIgG1 (WO2019/084307).

[2] = biological target: T2, Recombinant human MerTK human Fc …; experiment: competition ELISA, His-ProS on captured MerTK-Fc
Description: Rabbit anti-human IgG polyclonal antibody (Jackson ImmunoResearch, Cat #309-005-008) was captured to a high-protein binding plate at 2 μg/ml 4° C. overnight. After washing with 0.05% Tween20 in PBS three times, 5% BSA in PBS was added for 1 hour. Recombinant human MerTK human Fc Chimera protein (R&D systems, Cat #391-MR-100) was added at 2 μg/ml for 1 hour and the plates were then washed. Anti-MerTK antibodies were titrated to final concentration range of between 66.6 nM to 4 pM and then 40 μl of serially diluted antibody and 40 μl of His tag-conjugated recombinant Gas6 protein (R&D systems, Cat #885-GSB-050) at 3 μg/ml or His tag-conjugated recombinant ProS protein (R&D systems, Cat #9489-PS-100) at 20 μg/ml. After a further incubation for 1 hour, plates were washed and incubated for 1 hour with HRP-conjugated anti-6×His tag antibody (Abcam, Cat #ab1187). Plates were then washed and an HRP substrate (TMB) was used to develop the plates. After sufficient color change was observed, the reaction was stopped by adding 50 μl 2N H₂SO₄ and the OD was measured using a spectrophotometer (BioTek).
From these experiments, IC50 values [nM] were determined using OD450 values obtained from the dose-response curves analyzed with Prism software. Table 14 and Table 15 show IC50 values determined for anti-MerTK antibody blocking of Gas6 ligand binding and ProS ligand binding to MerTK. […] Dashes indicate lack of significant blocking; “n.a.” indicates data not available.

| Binder | Kd [1] | IC50 [2] | binding result [1] |
| --- | --- | --- | --- |
| MTK-05 (antibody, human IgG1, V domains shown) VH: QVQLQQSGAELVQPGTSVRLSCKTSGYTFTSYWIQWVKQRPGQGLGWIGEIFPGTGTTYYNEKFKGKATLTIDTSSSTAYMQLSSLTSEDSAVYFCARDGAYFDVWGAGTTVTVSS VL: DIQMTQSPASLSASVGETVTFTCRASENIFSYLAWYQQKQGKSPQLLVYNAKTLAEGVPSRFSGSGSGTHFSLKINSLQPEDFGSYYCLHHYGTPLTFGAGTKLELK |  | 6.51 nM | no binding (tested: 300 nM) |
| MTK-17 (antibody, human IgG1, V domains shown) VH: QIQLVQSGPELKKPGETVKISCKASGYTFTNFGMNWVKQAPGKGLKWMGWINTYTGEPTYADDFKGRFAFSLETSASTAYLQINNLKNEDTATYFCSRGAVLRAGAMDCWGQGTSVTVSS VL: DIQMTQSSSYLSVSLGGRVTITCKASDHINNWLAWYQQKPGNAPRLLISGATSLETGVPSRFSGSGSGKDYTLSITSLQTEDVATYYCQQYWSTPRTFGGGTKLEIK | 24 nM | 8.35 nM |  |
| MTK-19 (antibody, human IgG1, V domains shown) VH: EVQLQQSGPELVKPGASVKISCKTSGYTFTEYTMHWVKQSHGKSLEWLGGFNPNNVITSYNQRFQGRATLTVDKSSSTAYMELRSLTSDDSAVYYCTRGDLLWSLLLPGNYFDYWGQGTTLTVSS VL: not shown | 12 nM | 11.3 nM |  |
| MTK-20 (antibody, human IgG1, V domains shown) VH: QIQLVQSGPELKKPGETVKISCKASGYTFTNYGMTWVKQAPGKGLKWMGWINTYTGEPTYADDFKGRFALSLETSASTAYLQINNLKNEDTATYFCARGGGRLGLRPLDYWGQGTTLTVSS VL: DIQMTQTTSSLSASLGDRVTISCRASQDINNYLNWYQQKPDGTVKLLIYYTSRLHSGVPSRFSGSGSGTDYSLTISNLEQEDIATYFCQQGNTLPWTFGGGTKLEIK | 9.2 nM | 5.16 nM |  |
| MTK-18 (antibody, human IgG1, V domains shown) VH: QIQLVQSGPELKKPGETVKISCKASGYTFTHYGMTWVKQAPGKGLKWMGWINTYTGEPTYADDFKGRFAFSLETSASTAYLQINNLKNEDTATYFCARGGGQLGLRPLDYWGQGTTLTVSS VL: DIQMTQTTSSLSASLGDRVTFSCRASQAISNYLNWYQQKPDGTVKLLIYYTSRLHSGVPSRFSGSGSGTDYSLTISNLEQEDIATYFCQQGNTLPWTFGGGTKLEIK | 18 nM | 4.76 nM |  |
| MTK-01 (antibody, human IgG1, V domains shown) VH: QIQLVQSGPELKKPGETVKISCKASGYTFTNYGMNWVKQAPGKGLKCMGWINTYTGEPTYADDFKGRFAFSLETSATTAYLQINNLKNEDTATYFCARRDRYTWFAYWGQGTLVTVSA VL: QIVLSQSPAILSASPGEKVTMTCRASSSVSYMHWYQQKPGSSPKPWIYATSNLASGVPARFSGSGSGTSYSLTISRVEAEDAATYYCQQWSSNPPTFGGGTKLEIK | 99 nM | 2.85 nM |  |
| MTK-04 (antibody, human IgG1, V domains shown) VH: QIQLVQSGPELKKPGETVKISCKASGYTFTNYGMNWVKQAPGKGLKCMGWINTYTGEPTYADDFKGRFAFSLETSASTAYLQINNLKNEDMATYFCAKYDNYAWFAYWGQGTLVTVSA VL: QIVLSQSPAFLSASPGEKVTMTCRASSSVSYMHWYLQKPGSSPKPWIYATSNLASGVPVRFSGSGSGTSYSLTISRVEAEDAATYYCQQWSSNPRTFGGGTKLEIR | 44 nM | 12.8 nM |  |
| MTK-03 (antibody, human IgG1, V domains shown) VH: DVQLQESGPGLVKPSQSLSLTCSVTGYSITSGYYWNWIRQFPGNTLEWMGYMSFDGDNKFNPSLKNRISITRDTSKNQFFLRLNSVTTEDTATYYCARGGYNYGSTEANWGQGTLVTVSA VL: QIVLTQSPAIMSAFPGEKVTITCSASSSVNYMHWFQQKPGTSPKLWIYSTSNLASGVPARFSGSGSGTSYSLTISRMEAEDAATYYCQQRSSYPFTFGSGTKLEIK | 55 nM | 3.65 nM |  |
| MTK-07 (antibody, human IgG1, V domains shown) VH: DVQLQESGPGLVKPSQSLSLTCSVTGYSITSGYYWNWIRQFPGNTLEWMGYMSFDGDNKFNPSLKNRISITRDTSKNQFFLRLNSVTTEDTATYYCARGGYNYGSTEANWGQGTLVTVST VL: QIVLTQSPAIMSAFPGEKVTITCSASSSVTYMHWFQQKPGTSPKLWIFSTSNLASGVPARFSGSGSGTSYSLTISRMEAEDAATYYCQQRSSYPFTFGSGTKLEIK | 53 nM | 3.27 nM |  |

Other lines, results leading:

| Kd [1] | IC50 [2] | binding result [1] | Binder |
| --- | --- | --- | --- |
| 91 nM |  |  | MTK-31 (antibody, human IgG1, V domains shown) VH: QIQLVQSGPELKKSGETVKISCKASGYTFTSYGMSWVKQAPGKGLKWMGWINTYSGVPTYADDFKGRFAFSLETSASTAYLQINNLKNEDTATYFCASLSYDGSLYHAMDYWGQGTSVTVSS VL: DVSMTQTPLSLPVSLGDQASISSRSSQTIVHSNGNTYLEWYLQKPGQSPKLLIYKVSNRFSGVPDRFSGSGSGTDFTLKISRVEAEDLGVYYCFQGSHVPWTFGGGTKLEIK |
| 6.6 nM | 0.601 nM |  | MTK-33 (antibody, human IgG1, V domains shown) VH: QVQLQQPGPELVRPGTSVKLSCKASGYTFTSYWMHWIKQRPGQGLEWIGVIDPSDNYINYNQKFKGKATLTVDTSSSTAYLQLSSLTSEDSAVYYCAREAGTRGYFDYWGQGTTLTVSS VL: SIVMTQTPKFLLVSAGDRVIITCKASQSVSNTVAWYQQKPGQSPKLLIYYASNRYTGVPDRFTGSGYGTDFTFTISTVQAEDLAVYFCQQDYRSPFTFGSGTQLEMK |
| 43 nM | 13.5 nM |  | MTK-21 (antibody, human IgG1, V domains shown) VH: QIQLVQSGPELKKPGETVKISCKASGYTFTNFGMTWVRQAPGMDLKWMGWINTYTGEPKYADDFKGRFALSLETSASTAYLQITNFKNEDTATYFCARGGGRLGLRPLDYWGQGTTLTVSS VL: DIQMTQTTSSLSASLGDRVTISCRASQDINNYLNWYQQKPDGTVKLLIYYTSSLHSGVPSRFSGSGSGTDYSLTITNLEQEDIATYFCQQGNTLPWTFGGGTRLEIK |
|  | 2.66 nM |  | MTK-29 (antibody, human IgG1, V domains shown) VH: QIQLVQSGPELKKPGETVKISCKSSGFTFTTYGMSWVKQAPGKGLKWMGWINTYSGVPTYTDDFKGRFAFSLETSASTASLQINNLKNEDTATYFCARYTNYGYFDYWGQGTTLTVSS VL: QIVLSQSPAILSASPGEKVTMTCRATSSVGYMHWYQQKPGSSPKPWIYATSNLASGVPARFSGSGSGTSYSLTISRVEAEHAATYYCQQWGSNPFTFGSGTKLEIK |
